This is an account of results in patent publication US12545900B2, “CGAS/DNCV-like nucleotidyltransferases and uses thereof” (Dana-Farber Cancer Institute, Inc., priority 2018, dated 2026).

Entries after “also recorded” stand apart in the source; their conditions may differ.

One data set concerns the target T1, CapE (Escherichia coli, UniProt Q6XGD4).
T1 construct: made in house; host or cells: E. coli BL21 CodonPlus (DE3)-RIL
As to the kind of experiment: Phospholipase assay (EnzChek Phospholipase A1), CapE. The conditions noted are these: 0.1, 1, and 10-fold molar ratios of nucleotide to phospholipase. In kind it is biochemical, E. coli. The procedure: Patatin-like lipases were assayed as previously described (Gaspar & Machner (2014) Proc. Natl. Acad. Sci. U.S.A. 111:4560-4565). Briefly, CapV and CapE were produced recombinantly and catalytic activity was measured using the EnzChek® Phospholipase A1 Assay Kit (Invitrogen) according to the manufacturer's instructions. […] Assays were monitored fluorometrically Ex=460 nm/Em=515 nm, for 60 min at ˜90 s intervals at room temperature using a Biotek Synergy plate reader. Slope of each reaction in the linear range was used to calculate activity (Linear regression/straight line analysis, Prism 7.0c). A PLA1 standard curve from 20-0.02 U was used to interpolate phospholipase activity. Emission was monitored at a gain of 100 and/or 50 in order to extend the linear range of the assay.

In a further data set the target is T2, RECON (Mus musculus, UniProt Q8VC28).
T2 construct: 6xHis-SUMO2 (N, cleaved yes); made in house; host or cells: E. coli BL21 CodonPlus (DE3)-RIL
T2 sequence (Q8VC28 1-323): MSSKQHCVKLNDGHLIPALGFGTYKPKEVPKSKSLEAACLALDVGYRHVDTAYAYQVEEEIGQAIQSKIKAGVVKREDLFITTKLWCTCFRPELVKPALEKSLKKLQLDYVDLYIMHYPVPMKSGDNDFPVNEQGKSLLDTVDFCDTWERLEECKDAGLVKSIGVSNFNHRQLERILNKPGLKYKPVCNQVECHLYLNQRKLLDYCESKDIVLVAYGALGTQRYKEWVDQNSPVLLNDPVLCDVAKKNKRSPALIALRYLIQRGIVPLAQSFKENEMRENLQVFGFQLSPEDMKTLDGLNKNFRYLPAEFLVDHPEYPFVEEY
In words: Gel shift assay, radiolabeled nucleotide binding to RECON (native PAGE). Particulars: radiolabeled nucleotide, 0, 4, 20, 100 μM protein.

Another data set concerns the target T3, Mus musculus STING (Mus musculus, UniProt Q3TBT3).
T3 construct: 6xHis-SUMO2 (N, cleaved yes); made in house; host or cells: E. coli BL21 CodonPlus (DE3)-RIL
T3 sequence (Q3TBT3 138-378 limits assumed): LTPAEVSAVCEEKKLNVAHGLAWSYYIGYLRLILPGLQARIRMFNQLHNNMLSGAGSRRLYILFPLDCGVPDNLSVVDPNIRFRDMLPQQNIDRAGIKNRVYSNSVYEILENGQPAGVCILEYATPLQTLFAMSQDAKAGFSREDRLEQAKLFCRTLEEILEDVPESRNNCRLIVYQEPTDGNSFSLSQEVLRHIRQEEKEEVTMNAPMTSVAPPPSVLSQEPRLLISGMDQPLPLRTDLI
In words: Gel shift assay, radiolabeled nucleotide binding to STING (native PAGE). Particulars: radiolabeled nucleotide, 0, 4, 20, 100 μM protein.

Data set [1] is described as follows: Second messenger synthesis assay ([α-32P] NTPs, TLC, MS/NMR of products). In kind it is biochemical. The conditions noted are these: for nucleotide product synthesized by the enzyme: purified enzyme with [α-32P] NTPs, TLC, products confirmed by MS/NMR. The procedure:
Recombinant, candidate nucleotidyltransferase reactions combined 4 μL of 5× reaction buffer (250 mM CAPSO pH 9.4, […], 25 mM Mg (OAc) 2, 5 mM DTT), 2 μL of 10× NTPs, 1 uL [α-^32P] NTPs (˜1 uCi), 1 μL of candidate enzyme in storage buffer (˜20 μM), and a remaining volume of nuclease free water. The final reactions (50 mM CAPSO pH 9.4, 50 mM KCl, 5 mM Mg (OAc) 2, 1 mM DTT, ≤5% glycerol, 25-250 μM individual NTPs, trace amounts of [(-^32P] NTP, 1 μM enzyme) were started with addition of enzyme. Where indicated, pH was altered by replacing CAPSO buffer with appropriate buffer from “StockOptions pH Buffer Kit” (Hampton Research). When appropriate, Mg^2+ was replaced with an equimolar concentration of Mn^2+(MnCl2). cGAS reactions were always carried out with Tris at pH 7.5 and supplemented with 1 μM ISD45 dsDNA (Stetson & Medzhitov. (2006) Immunity 24:93-103). Reactions were carried out with 25 μM of each indicated NTP for FIGS. 1B, 3D, 8B, 8C, and 8D and for FIGS. 2C, 2G-2I, 5B, 5C, 10A-10D, 11A, 11B, and 13D. Reactions in all other figures were carried out with 250 μM NTP. The NTP/[α-^32P] NTPs in FIG. 1B are cGAS (ATP, GTP/[α-^32P] GTP), DncV (ATP, GTP/[α-^32P] ATP), DisA (ATP/[α-^32P] ATP), WspR (GTP/[xx-^32P] GTP), and CdnE (NTP/[{-^32P] NTP). P1 nuclease treated reactions in FIG. 1C and FIG. 11B are cGAS (ATP, GTP/[α-^32P] ATP), DncV (ATP, GTP/[α-^32P] GTP), CdnE (ATP, UTP/[<- ^32P] ATP), and Lp-CdnE02 (CTP, UTP/ [α-^32P] UTP) . Where indicated, nonhydrolyzable nucleotides [Ap (c) pp, Gp (c) pp, Cp (c) pp, or Up (n) pp (Jena)] were used at 25 μM.
Reactions were incubated for 2 h at 37° C. prior to analysis unless otherwise stated. Reactions were stopped by addition of 5 U of alkaline phosphatase (New England Biolabs) which removed triphosphates on remaining NTPs and converted the remaining nucleotide [α-^32P] to ^32Pi and allowed visualization of cyclic nucleotides. After a >20 min incubation, […] (PEI-cellulose) or 1 uL (silica) of the reaction was spotted 1.5 cm from the bottom of the TLC plate, spaced 0.8 cm apart. 20 cm×20 cm F-coated PEI-cellulose TLCs (Millipore) were developed in 1.5 M KH2PO4 (pH 3.8) until the buffer front reacted ˜1 cm from the top; 20 cm×10 cm F-coated silica HP-TLC plates (Millipore) were developed in 11:7:2 1-propanol: NH4OH: H2O in a chemical fume hood for 1 hour. Plates were dried and exposed to phosphorscreen prior to detection by Typhoon™ Trio Variable Mode Imager system (GE Healthcare). All TLC data are representative of ≥3 independent experiments, with the exception of the biochemical screen which represents ≥2 independent experiments.
Cyclic nucleotides were produced in large scale using previously described methods (Sureka et al. (2014) Cell 158:1389-1401) with the following changes. Small-scale second messenger synthesis assays were scaled up to […] reactions with final conditions of 50 mM CAPSO pH 9.4, 12.5-50 mM KCl, 5-20 mM Mg (OAc) 2, 1 mM DTT, ≤5% glycerol, 250 μM individual NTPs, and 1 μM enzyme. A 20 μL aliquot of the larger reaction was removed and [cx-^32P] NTP were added to follow reaction progress. Reactions were incubated for 24 hours at which time 5 U of CIP/mL of reaction was added and the reaction was further incubated for 2-24 hours. Reactions were heat inactivated at 65° C. for 30 min, diluted to a final salt concentration of 12.5 mM, and purified by anion exchange chromatography and FPLC (either 1 mL Q-Sepharose® column, or Mono Q 4.6/100 PE, GE Healthcare). The column was washed with water and 1 mL fractions were collected during a gradient elution with 2M ammonium acetate. Fractions harboring the appropriate product were identified by A260 and silica TLC, visualizing the nucleotide products by UV-shadowing, imaging using a handheld camera, and comparing migration to paired, radiolabeled reactions. Selected fractions were concentrated by evaporation and re-suspended in 30 μL of nuclease free water for MS. […]

T1 sequence (Q6XGD4 whole entry): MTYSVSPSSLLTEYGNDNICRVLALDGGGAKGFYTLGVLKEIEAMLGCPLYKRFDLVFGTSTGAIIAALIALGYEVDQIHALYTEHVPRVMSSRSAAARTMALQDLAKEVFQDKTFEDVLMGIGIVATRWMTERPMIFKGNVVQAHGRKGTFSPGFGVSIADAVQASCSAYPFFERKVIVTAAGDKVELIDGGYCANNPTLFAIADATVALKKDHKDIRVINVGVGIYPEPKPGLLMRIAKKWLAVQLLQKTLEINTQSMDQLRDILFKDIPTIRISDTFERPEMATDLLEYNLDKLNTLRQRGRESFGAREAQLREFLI
Protocol for Mus musculus STING: (§1) Briefly, recombinant Mus musculus STING or RECON, at 4, 20, or 100 μM was incubated with radiolabeled nucleotide (≤1 μM final concentration) in gel shift buffer for final conditions of 50 mM Tris pH 7.5, 60 mM KCl, 5 mM Mg (OAc) 2, and 1 mM DTT. Experiments were prepared by combining 1 μL of [α-^32P] labeled nucleotide, 2 uL 5x gel shift buffer, 5 μL of nuclease free water, and started by addition of 2 μL of recombinant protein in storage buffer.
(§2) After 30 min of equilibration, bound and free nucleotide were separated by 6% native PAGE in 0.5x TBE buffer. Gels were dried, and exposed to phosphorscreen prior to detection by Typhoon Trio Variable Mode Imager system (GE Healthcare). Gel shifts were quantified with ImageQuant® 5.2 and the % bound nucleotide was calculated as a proportion of total bound and free nucleotide for each lane, after subtraction of background signal. Gel shift data is representative of ≥2 independent experiments.
Protocol for RECON: as §1, §2

For the molecule `Nc1nc2c(ncn2[C@@H]2O[C@@H]3COP(=O)(O)O[C@H]4[C@@H](O)[C@H](n5cnc6c(N)ncnc65)O[C@@H]4COP(=O)(O)O[C@H]3[C@H]2O)c(=O)[nH]1` [3′3′ cGAMP, 3′-5′/3′-5′ cGAMP, reference compound], on CapE, the “activation of CapE phospholipase activity” value was “exquisite specificity of CapE insulates this circuit from 3′3′ cGAMP”. Moreover, on RECON, the “recognition/binding of nucleotide by RECON” value is “detected by both STING and RECON”.

Turning to `Nc1ncnc2c1ncn2[C@@H]1O[C@@H]2COP(=O)(O)O[C@H]3[C@@H](O)[C@H](n4cnc5c(N)ncnc54)O[C@@H]3COP(=O)(O)O[C@H]2[C@H]1O` [c-di-AMP, cyclic di-AMP, reference compound], the “recognition/binding of nucleotide by RECON” value at RECON was “detected by both STING and RECON”.

Take `Nc1nc2c(ncn2[C@@H]2O[C@@H]3COP(=O)(O)O[C@H]4[C@@H](O)[C@H](n5cnc6c(=O)[nH]c(N)nc65)O[C@@H]4COP(=O)(O)O[C@H]3[C@H]2O)c(=O)[nH]1` [c-di-GMP, cyclic di-GMP, reference compound]: on Mus musculus STING, the “recognition/binding of nucleotide by STING” value is listed as “detected by STING”.

B1: Em-CdnE: CdnE from Elizabethkingia meningoseptica, SEQ ID NO: 201 (protein, listed as Elizabethkingia meningoseptica)
chain: MNFSEQQLINWSRPVSTTEDLKCQNAITQITAALRAKFGNRVTIFLQGSYRNNTNVRQNSDVDIVMRYDDAFYPDLQRLSESDKAIYNAQRTYSGYNFDELKADTEEALRNVFTTSVERKNKCIQVNGNSNRITADVIPCFVLKRFSTLQSVEAEGIKFYSDDNKEIISFPEQHYSNGTEKTNQTYRLYKRMVRILKVVNYRLIDDGEIADNLVSSFFIECLVYNVPNNQFISGNYTQTLRNVIVKIYEDMKNNADYTEVNRLFWLFSNRSPRTRQDALGFMQKCWNYLGYQ
Regarding B1, the “nucleotide product synthesized by the enzyme” value (from here on “nucleotide product synthesized”) in data set [1] is “robustly synthesized cyclic dipurines; also recorded: synthesis of c-di-AMP, cGAMP, and c-di-GMP”.

B2: Ec-CdnD02: CD-NTase from Enterobacter cloacae, SEQ ID NO: 112 (protein, listed as Enterobacter cloacae)
chain: MELQPQFNEFLANIRPTDTQKEDWKSGARTLRERLKNFEPLKEIVVSTFLQGSIRRSTAIRPLGDKRPDVDIVVVTNLDHTRMSPTDAMDLFIPFLEKYYPGKWETQGRSFGITLSYVELDLVITAIPESGAEKSHLEQLYKSESVLTVNSLEEQTDWRLNKSWTPNTGWLSESNSAQVEDAPASEWKAHPLVLPDREKNEWGRTHPLAQIRWTAEKNRLCNGHYINLVRAVKWWRQQNSEDLPKYPKGYPLEHLIGNALDNGTTSMAQGLVQLMDTFLSRWAAIYNQKSKPWLSDHGVAEHDVMARLTAEDFCSFYEGIASAAEIARNALASEEPQESAQLWRQLFGSKFPLPGPQGGDRNGGFTTPSKPAEPQKTGRFA
With B2, the “nucleotide product synthesized” value in data set [1] is “cyclic AMP-AMP-GMP (cAAG), a cyclic trinucleotide, is the major product”.

B3: CdnE: E. coli cGAS/DncV-like nucleotidyltransferase, SEQ ID NO: 166 (protein, listed as Escherichia coli)
chain: MGIPESQLDTWSHQGSIAQSASTYSIIKNALESANTKYHGKNFKVFLQGSYGNDTNIYAESDVDVVICLDDVYYSDLTQLSPEDKDAYDRAFVPATYSYTQFKQDVLEALTERFGSDVKVGDKAIVVAANGSRRKADVIASMQFRRYWKFKGHYDSQYDEGICFFNGAGERIANYPKQHSENLTLKHQASNKWLKPMVRVLKNLRSKLIADGKLKSGLAPSYYLEGLLYNVPNEKFGTSYADCFVNAMNWIQTEADKDKLVCANEQYYLLWEGTHTSWEKADAEAFIDAAIKMWNEW
Regarding B3, in data set [1], the “requirement of a cognate stimulus for enzyme activity” value was “constitutively active and does not require a cognate stimulus”; the “nucleotide product synthesized” value was “cyclic UMP-AMP (cUMP-AMP)”. For the same molecule, the “nucleotide product synthesized” value in data set [1] (listed as wild-type CdnE) is given as “robustly synthesized cUMP-AMP”.

B4: Rm-CdnE: CdnE homolog from Rhodothermus marinus, SEQ ID NO: 198 (protein, listed as Rhodothermus marinus)
chain: MPVPESQLERWSHQGATTTAKKTHESIRAALDRYKWPKGKPEVYLQGSYKNSTNIRGDSDVDVVVQLNSVFMNNLTAEQKRRFGFVKSDYTWNDFYSDVERALTDYYGASKVRRGRKTLKVETTYLPADVVVCIQYRKYPPNRKSEDDYIEGMTFYVPSEDRWVVNYPKLHYENGAAKNQQTNEWYKPTIRMFKNARTYLIEQGAPQDLAPSYFLECLLYNVPDSKFGGTFKDTFCSVINWLKRADLSKFRCQNGQDDLFGEFPEQWSEEKARRFLRYMDDLWTGWGQ
Turning to B4, the “nucleotide product synthesized” value in data set [1] was “synthesized cUMP-AMP”.
